Measured values reported in paper PMC12959773 (Protein & Cell, 2025).

B1: SLC7A11-SLC3A2 complex (Homo sapiens) (protein)
chain: MVRKPVVSTISKGGYLQGNVNGRLPSLGNKEPPGQEKVQLKRKVTLLRGVSIIIGTIIGAGIFISPKGVLQNTGSVGMSLTIWTVCGVLSLFGALSYAELGTTIKKSGGHYTYILEVFGPLPAFVRVWVELLIIRPAATAVISLAFGRYILEPFFIQCEIPELAIKLITAVGITVVMVLNSMSVSWSARIQIFLTFCKLTAILIIIVPGVMQLIKGQTQNFKDAFSGRDSSITRLPLAFYYGMYAYAGWFYLNFVTEEVENPEKTIPLAICISMAIVTIGYVLTNVAYFTTINAEELLLSNAVAVTFSERLLGNFSLAVPIFVALSCFGSMNGGVFAVSRLFYVASREGHLPEILSMIHVRKHTPLPAVIVLHPLTMIMLFSGDLDSLLNFLSFARWLFIGLAVAGLIYLRYKCPDMHRPFKVPLFIPALFSFTCLFMVALSLYSDPFSTGIGFVITLTGVPAYYLFIIWDKKPRWFRIMSEKITRTLQIILEVVPEEDKL
B2: SLC7A13-SLC3A1 complex (Homo sapiens) (protein)
chain: MDRGEKIQLKRVFGYWWGTSFLLINIIGAGIFVSPKGVLAYSCMNVGVSLCVWAGCAILAMTSTLCSAEISISFPCSGAQYYFLKRYFGSTVAFLNLWTSLFLGSGVVAGQALLLAEYSIQPFFPSCSVPKLPKKCLALAMLWIVGILTSRGVKEVTWLQIASSVLKVSILSFISLTGVVFLIRGKKENVERFQNAFDAELPDISHLIQAIFQGYFAYSGGACFTLIAGELKKPRTTIPKCIFTALPLVTVVYLLVNISYLTVLTPREILSSDAVAITWADRAFPSLAWIMPFAISTSLFSNLLISIFKSSRPIYLASQEGQLPLLFNTLNSHSSPFTAVLLLVTLGSLAIILTSLIDLINYIFFTGSLWSILLMIGILRRRYQEPNLSIPYKVFLSFPLATIVIDVGLVVIPLVKSPNVHYVYVLLLVLSGLLFYIPLIHFKIRLAWFEKMTCYLQLLFNICLPDVSEE
notes: heterodimeric light/heavy chain transporter, dimer of heterodimers; ectopically expressed in HEK293T / HEK293 cells (Expi293 for cryo-EM); with Amino acid transporter heavy chain SLC3A1
B3: SLC7A9-SLC3A1 complex (Homo sapiens) (protein)
chain: MGDTGLRKRREDEKSIQSQEPKTTSLQKELGLISGISIIVGTIIGSGIFVSPKSVLSNTEAVGPCLIIWAACGVLATLGALCFAELGTMITKSGGEYPYLMEAYGPIPAYLFSWASLIVIKPTSFAIICLSFSEYVCAPFYVGCKPPQIVVKCLAAAAILFISTVNSLSVRLGSYVQNIFTAAKLVIVAIIIISGLVLLAQGNTKNFDNSFEGAQLSVGAISLAFYNGLWAYDGWNQLNYITEELRNPYRNLPLAIIIGIPLVTACYILMNVSYFTVMTATELLQSQAVAVTFGDRVLYPASWIVPLFVAFSTIGAANGTCFTAGRLIYVAGREGHMLKVLSYISVRRLTPAPAIIFYGIIATIYIIPGDINSLVNYFSFAAWLFYGLTILGLIVMRFTRKELERPIKVPVVIPVLMTLISVFLVLAPIISKPTWEYLYCVLFILSGLLFYFLFVHYKFGWAQKISKPITMHLQMLMEVVPPEEDPE
B4: SLC3A1 (natural protein, human)
chain: AEDKSKRDSIEMSMKGCQTNNGFVHNEDILEQTPDPGSSTDNLKHSTRGILGSQEPDFKGVQPYAGMPKEVLFQFSGQARYRIPREILFWLTVASVLVLIAATIAIIALSPKCLDWWQEGPMYQIYPRSFKDSNKDGNGDLKGIQDKLDYITALNIKTVWITSFYKSSLKDFRYGVEDFREVDPIFGTMEDFENLVAAIHDKGLKLIIDFIPNHTSDKHIWFQLSRTRTGKYTDYYIWHDCTHENGKTIPPNNWLSVYGNSSWHFDEVRNQCYFHQFMKEQPDLNFRNPDVQEEIKEILRFWLTKGVDGFSLDAVKFLLEAKHLRDEIQVNKTQIPDTVTQYSELYHDFTTTQVGMHDIVRSFRQTMDQYSTEPGRYRFMGTEAYAESIDRTVMYYGLPFIQEADFPFNNYLSMLDTVSGNSVYEVITSWMENMPEGKWPNWMIGGPDSSRLTSRLGNQYVNVMNMLLFTLPGTPITYYGEEIGMGNIVAANLNESYDINTLRSKSPMQWDNSSNAGFSEASNTWLPTNSDYHTVNVDVQKTQPRSALKLYQDLSLLHANELLLNRGWFCHLRNDSHYVVYTRELDGIDRIFIVVLNFGESTLLNLHNMISGLPAKMRIRLSTNSADKGSKVDTSGIFLDKGEGLIFEHNTKNLLHRQTAFRDRCFVSNRACYSSVLNILYTSC
modifications: five glycosylation sites in the extracellular domain
notes: SLC3A1 (rBAT), human; heavy chain subunit: small N-terminal cytoplasmic region, a single TM and a large extracellular domain; Two copies stand in the solved hetero-tetramer; also called rBAT; heavy chain of the SLC7A13-SLC3A1 cystine transporter

Columns and labels:
[1] = substrate: N[C@@H](CSSC[C@H](N)C(=O)O)C(=O)O; experiment: cells, lysate or membranes; conditions: cellular transport (Vmax given per cell)
[2] = substrate: N[C@@H](CSSC[C@H](N)C(=O)O)C(=O)O; experiment: cells, lysate or membranes; type: cell-based, Homo sapiens; conditions: cellular transport (Vmax given per cell)
[3] = biological target: the molecule itself; experiment: cryo-EM structure; apo state; SLC7A13 and SLC3A1 co-expressed in Expi293 cells, complex purified by affinity purification and SEC; overall resolution 2.64 Å

Row | Protein | Km [1] | also measured
1 | B1 | 67.57 ± 21.95 µM | –
2 | B2 | – | Km [2]: 126.5 ± 33.25 µM
3 | B3 | 276.9 ± 107.6 µM | –
4 | B4 | – | stoichiometry N [3]: 2
